Experimental data published in paper PMC12278352, “Characterization of DnaB–DnaG Interaction in M. tuberculosis Using Small‐Angle X‐ray Scattering‐Based Dissociation Assay” (Chembiochem, 2025).

B1: primase domain of gene 4 protein (gp4) from bacteriophage T7 (residues 1–271) (domain or fragment, UniProt P03692 1-271, looked up)
chain: MDNSHDSDSVFLYHIPCDNCGSSDGNSLFSDGHTFCYVCEKWTAGNEDTKERASKRKPSGGKPMTYNVWNFGESNGRYSALTARGISKETCQKAGYWIAKVDGVMYQVADYRDQNGNIVSQKVRDKDKNFKTTGSHKSDALFGKHLWNGGKKIVVTEGEIDMLTVMELQDCKYPVVSLGHGASAAKKTCAANYEYFDQFEQIILMFDMDEAGRKAVEEAAQVLPAGKVRVAVLPCKDANECHLNGHDREIMEQVWNAGPWIPDGVVSALSL
notes: primase domain of gene 4 protein (gp4), bacteriophage T7, residues 1-271; For the NMR spectra the protein was 15N-labelled and deuterated; Monomer without cofactors, dimer with ATP/CTP, RNA and Mg2+; also called T7 primase; T7 DNA primase
B2: M. tuberculosis DnaG primase, full-length (enzyme)
chain: MSGRISDRDIAAIREGARIEDVVGDYVQLRRAGADSLKGLCPFHNEKSPSFHVRPNHGHFHCFGCGEGGDVYAFIQKIEHVSFVEAVELLADRIGHTISYTGAATSVQRDRGSRSRLLAANAAAAAFYAQALQSDEAAPARQYLTERSFDAAAARKFGCGFAPSGWDSLTKHLQRKGFEFEELEAAGLSRQGRHGPMDRFHRRLLWPIRTSAGEVVGFGARRLFDDDAMEAKYVNTPETLLYKKSSVMFGIDLAKRDIAKGHQAVVVEGYTDVMAMHLAGVTTAVASCGTAFGGEHLAMLRRLMMDDSFFRGELIYVFDGDEAGRAAALKAFDGEQKLAGQSFVAVAPDGMDPCDLRLKCGDAALRDLVARRTPLFEFAIRAAIAEMDLDSAEGRVAALRRCVPMVGQIKDPTLRDEYARQLAGWVGWADVAQVIGRVRGEAKRTKHPRLGRLGSTTIARAAQRPTAGPPTELAVRPDPRDPTLWPQREALKSALQYPALAGPVFDALTVEGFTHPEYAAVRAAIDTAGGTSAGLSGAQWLDMVRQQTTSTVTSALISELGVEAIQVDDDKLPRYIAGVLARLQEVWLGRQIAEVKSKLQRMSPIEQGDEYHALFGDLVAMEAYRRSLLEQASGDDLTA
notes: DnaG primase, Mycobacterium tuberculosis, full length (the truncated form ends at amino acid 639); also called full DnaG; full-length DnaG

What was measured:
[1] = biological target: the molecule itself; experiment: cross-linking; Fe(II)-catalysed cross-linking of T7 primase (15 μM) with 1 mM ATP, ferrous chloride, H2O2, ascorbic acid, room temperature 45 min; products analysed by Superdex 200 SEC, SDS-PAGE and MALDI-TOF
[2] = biological target: the molecule itself; experiment: SAXS; T7 primase at constant concentration (1 mg/ml in the methods, 50 μM in the legend) with increasing 4-mer RNA (5'-ACCC-3'), RNA:protein molar ratio 1 to 10, in the presence of ATP/CTP, RNA and Mg2+; 20 mM Tris-HCl pH 7.5, 1 mM DTT; 4 °C; Rg against theoretical monomer (24 Å) and dimer (27 Å)
[3] = biological target: the molecule itself; experiment: SPR; full-length DnaG (7.2 μg) immobilised on a GLC chip by amine coupling; soluble DnaG 0-17 μM, 60 μL/min; signal at equilibrium; profile did not follow a pure 1:1 fit; monomer to dimer

| Protein | stoichiometry N [1] | stoichiometry N [2] | Kd [3] [µM] |
| --- | --- | --- | --- |
| B1 | 3 | 2 | – |
| B2 | – | – | 2 ± 0.3 |
